The values below come from patent US8221990B2, “Screening GPR12 receptor for substances having Nesfatin-1-like action, or which regulate Nesfatin-1 action” (Teijin Pharma Limited, priority 2007, dated 2012).

One assay concerns the target T1, GPR12 (Mus musculus, UniProt P35412).
T1 construct: in which GPR12 was endogenously expressed; endogenous in cells; host or cells: NB41A3 cells (ATCC-CCL147), mouse brain neuroblastoma
T1 sequence (P35412 1-334): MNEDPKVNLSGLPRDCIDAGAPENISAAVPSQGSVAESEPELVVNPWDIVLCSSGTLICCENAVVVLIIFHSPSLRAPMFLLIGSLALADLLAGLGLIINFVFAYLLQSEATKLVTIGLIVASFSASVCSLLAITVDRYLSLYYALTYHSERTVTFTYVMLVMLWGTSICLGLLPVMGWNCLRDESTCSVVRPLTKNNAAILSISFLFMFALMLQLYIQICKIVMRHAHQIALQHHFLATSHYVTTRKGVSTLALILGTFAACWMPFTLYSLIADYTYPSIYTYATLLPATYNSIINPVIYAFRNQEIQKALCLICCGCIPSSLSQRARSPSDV
The experiment in a line: Expression of a CRE-reporter gene (pCRE-Luc luciferase) in NB41A3 cells expressing GPR12 endogenously. Format: cell-based. The settings on record: NB41A3 cells transfected with pCRE-Luc, 10^-10 M, 16 hours. As for the experimental part: NB41A3 cells (ATCC-CCL147), a cell strain derived from mouse brain neuroblastoma, in which GPR12 was endogenously expressed were used. The confluent NB41A3 cells were recovered in a 10-cm dish, plated onto 10 cm-dishes after dividing the cell colony in four quarters, and cultured for one day in Ham's F12K medium. The cells were transected with 5 μg of the reporter plasmid pCRE-Luc (Stratagene Corporation, Catalog No. 219074) in which TATA-BOX and luciferase were incorporated into downstream of CRE by a calcium phosphate method. The cells were washed with Ham's F12K medium 16 hours after the transfection. Ham's F12K medium containing no test substance (Vehicle), Ham's F12K medium containing 10^−10 M of Nesfatin-1 M30 (Mid-Segment: SEQ ID NO: 11), Ham's F12K medium containing 10^−10 M of a modified peptide M30_Ag-A (SEQ ID NO: 50) (M30_Ag-A), and Ham's F12K medium containing 10^−10 M of a modified peptide M30_MSH-A (SEQ ID NO: 51) […] were added to the cells, and the resultant mediums were cultured under the conditions of 37° C. and 5% CO2 for 16 hours. After the culturing, the cells were washed twice with phosphate-buffered saline (PBS), lysed with 4 mL of lysis buffer (an aqueous solution containing 25 mM of glycylglicine (pH 7.8), 15 mM of magnesium sulfate, 4 mM of glycol ether diaminetetraacetic acid (EGTA), 1 mM of dithiothreitol (DTT), and 1% (volume/volume) of Triton X-100). […] After adding 200 μL of 0.2 mM of d-luciferin to the diluted cell lysate, the luminescence was measured for 10 seconds by a luminometer, and the amount of luminescence (units) was determined. Further, the amount of protein in each cell lysate was measured by BCA™ Protein Assay Kit-Reducing Agent Compatible (Pearce, Catalog No. 23250), and the value obtained by dividing the amount of luminescence (units) by the amount of protein (μg) in a sample was determined as a luciferase activity. […] The cells were cultured for 16 hours, and then the level of luciferase activity was also determined.

The target in a further assay is T2, mGPR12 (Mus musculus, UniProt P35412).
T2 sequence (P35412 1-334): T1 sequence (P35412 1-334)
The experiment in a line: CREB phosphorylation in CHO-K1-cell stable expression system (western blotting). Format: cell-based. More on the design: expressed in transfected cells. The conditions noted are these: CHO-K1-mGPR12 cells. As for the experimental part: Using Nesfatin-1M30 (Mid-segment) as a test substance, the method for bringing the test substance into contact with cells was conducted as follows. The confluent CHO-K1 cells and CHO-K1-mGPR12 cells were recovered in 10-cm dishes, plated onto 10-cm dishes by dividing the cell colony in four quarters, and cultured for 2 days in Ham's F12 medium (as for CHO-K1-mGPR12, 700 μg/mL of Geneticin® was contained). After removing the medium, the resultant cultured cells were washed once with the medium containing no Geneticin®, and then Ham's F12 medium containing 10^−9 M of Nesfatin-1M30 (Mid-segment) peptide was added to the cells. […] SDS-gel electrophoresis was conducted by using the protein extracts from each cells; and then the protein was transcribed into Amersham hybond-P[…] (GE Healthcare); and using anti-phosphorylation CREB antibody (Cell Signaling Technology, Inc., Catalog No. #9191) for detecting the phosphorylated CREB, the phosphorylated CREB was detected with an ECL plus western blotting detection reagents (GE Healthcare) kit, in accordance with the attached protocol. […]
Further, the concentration dependence was examined by using Nesfatin-1M30 (Mid-segment: SEQ ID NO: 11). […] Subsequently, cellular proteins were extracted, and the phosphorylated CREB (p-CREB) was detected by a western blotting method.

“Nesfatin-1M30: mid-segment of Nesfatin-1, human-derived Nesfatin-1M30, SEQ ID NO: 11 (PDTGLYYDEYLKQVIDVLETDKHFREKLQK; listed as Homo sapiens)”: the “luciferase activity compared with Vehicle” value with GPR12 was “enhanced”. Moreover, the “phosphorylation of CREB (p-CREB band), time course” value in the assay with mGPR12 (10^-9 M, 15 minutes or later after contact) is given as “phosphorylation of CREB was induced”. Moreover, the “phosphorylation of CREB, concentration dependence” value in the assay with mGPR12 (10^-12 M to 10^-9 M, 15 minutes) is “enhanced depending on the M30 peptide concentration”.
